Data reported in patent US7384773B1, “Crystal of HIV protease-cleaved human beta secretase and method for crystallization thereof” (Pfizer Inc, priority 2001, dated 2008).

Target: T1, beta secretase (Homo sapiens, UniProt P56817)
T1 construct: made in house; host or cells: CHO-K1 cells (secreted, glycosylated)
Assay: beta secretase enzymatic activity assayed by HPLC analysis of the products
Format: biochemical
Details: CHO cell derived human beta secretase cleaved at F39-V40 by HIV-1 protease and purified, compared with non-treated beta secretase
Protocol: Purified HIV-1 protease treated (and non-treated) beta secretase were assayed for activity by HPLC analysis of the products.

B1: HIV-1 protease treated beta secretase: CHO cell expressed recombinant human beta secretase proteolytically cleaved with HIV protease (N-terminus V40), used for crystallization (protein)
chain: VEMVDNLRGKSGQGYYVEMTVGSPPQTLNILVDTGSSNFAVGAAPHPFLHRYYQRQLSSTYRDLRKGVYVPYTQGKWEGELGTDLVSIPHGPNVTVRANIAAITESDKFFINGSNWEGILGLAYAEIARPDDSLEPFFDSLVKQTHVPNLFSLQLCGAGFPLNQSEVLASVGGSMIIGGIDHSLYTGSLWYTPIRREWYYEVIIVRVEINGQDLKMDCKEYNYDKSIVDSGTTNLRLPKKVFEAAVKSIKAASSTEKFPDGFWLGEQLVCWQAGTTPWNIFPVISLYLMGEVTNQSFRITILPQQYLRPVEDVATSQDDCYKFAISQSSTGTVMGAVIMEGFYVVFDRARKRIGFAVSACHVHDEFRTAAVEGPFVTLDMEDCGYNIPQTDESHHHHHH
- more enzymatic activity than non-treated (unprocessed) beta secretase: 10-20%
